Assay results published in CN114591432A (NANJING FUJIEKANG BIOTECHNOLOGY CO LTD, dated 2022).

Biological target: T1, 人源TNFα重组胞外结构域蛋白 (human, UniProt P01375 57-233)
T1 construct: range 57-233; No purification tag is described; also called 人源重组TNFα蛋白; TNFα蛋白
Assay: ELISA of crude VHH extract on coated TNFα, anti-HA-HRP; positive if OD above 5 times the control well

T1 sequence (P01375 57-233 limits assumed): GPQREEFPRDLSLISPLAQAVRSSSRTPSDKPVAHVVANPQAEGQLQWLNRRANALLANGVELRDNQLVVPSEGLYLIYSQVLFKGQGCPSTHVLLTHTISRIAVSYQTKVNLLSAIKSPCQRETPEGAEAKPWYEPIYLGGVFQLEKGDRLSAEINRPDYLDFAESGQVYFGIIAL

binding result | Binder
binds | 单域抗体2B8 (VHH, Crude extract from E. coli TG1 clones (pMECS), detected through an HA tag) VHH: ESGGGSVQAGGSLRLSCAASGYTFSTYCMAWFRQAPGEEREGVAYIDTDGSTGHADSVRGRFTVSRDNAKNTLYLQMNSLKPEDTAIYYCAARWTRLCGWWSYPTGSWGQGTQVTVSS
binds | 单域抗体2B1 (VHH, Crude extract from E. coli TG1 clones (pMECS), detected through an HA tag) VHH: ESGGGSVQSGGSLRLSCQASGYTSSSYCMGWFRQVPGKEREGVASIDSGGFTHTANSVKGRFTISQDNAKNTLYLQMNSLKPEDTAMYYCAATPREFGWCSLSGHFNYWGQGTQVTVSS
binds | 单域抗体1E9 (VHH, Crude extract from E. coli TG1 clones (pMECS), detected through an HA tag) VHH: ESGGGSVQSGGSLRLSCTVFGATFNGHAMAWFRQAPGKDREGVSCISMSGRSTAYADSVKGRFTISRDNAKNTLYLQMNGLKPEDTAMYYCAAAAFGYCSGPWSSSHGEYMYWGQGTQVTVSS
binds | 单域抗体1H10 (VHH, Crude extract from E. coli TG1 clones (pMECS), detected through an HA tag) VHH: ESGGGLVQAGGSLRLSCTVFGATFNGHAMAWFRQAPGKDREGVSCISMSGRSTAYADSVKGRFTISRDNAKNTLYLQMNGLKPEDTAMYYCAAAAFGYCSGPWSSSHGEYMYWGQGTQVTVSS
binds | 单域抗体4A5 (VHH, Crude extract from E. coli TG1 clones (pMECS), detected through an HA tag) VHH: ESGGGLVQPGGSLRLSCTVSGLTFNDYALAWFRQAPGKDREGVSCISWSGGSTAYADSVKGRFTISRDNAKNTVYLQMNSLKPEDTAMYYCAAPAFRYCSGPWSSSHGEYIYWGQGTQVTVSS
